Results: the nanobody polyreactivity screen of Harvey et al. (2022)

Test: yeast display, Sf9 membrane polyspecificity reagent, FACS + sequencing; frameworks hold sequencing errors
Method in brief: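 Synthetic nanobody libraries on Saccharomyces cerevisiae BJ5465 were galactose-induced for 36–48 hours, stained 1 hour at 4 °C with 10% biotinylated, detergent-solubilized Sf9 membrane reagent and enriched on streptavidin microbeads. FACS then separated cells into low and high (top ~1%) gates by anti-HA (expression) and streptavidin (reagent binding) fluorescence. Genes were colony-PCR amplified, MiSeq 2 × 250 sequenced and CDR-length filtered. A clone's polyreactivity label is that of its gate of origin.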

Row | Sequence | polyreactivity (PSR sort gate)
1 | QVQLVESGGGLVQAGGSLRLSCAASGSTFRLYAMGWYRQAPGKERELVAAISSRGGSTYYADSVKGRFTISRDNAKNTVYLQMNSLKPEDTAVYYCATDYITPSSEGDYWGQGTQVTVTS | high polyreactivity
2 | QVQLVESGGGLVQAGGSLRLSCAASGRIFGRTAMGWYRKAPGKERELVAAISWRGGNTYYADSVKGRFTISRDNAKNTVYLQMNSLKPEDTAVYYCNTVQYRNEMGYWGQGTQVTVSS | high polyreactivity
3 | QVQLVESGGGLVQAGGSLRLSCAASGSIFPHYAMGWYREAPGKERELVAAISRGGSTNYADSVKGRFTISRDNAKNTVYLQMNSLKPEDTAVYYCNALRYYSRFQYAVAYRYDYWGQGTQVTVSS | high polyreactivity
4 | QVQLVESGGGLVQAGGSLRLSCAASGSIFYGYTMGWYRQAPGKERELVAGITRSGTSTYYADSVKGRFTISRDNAKNTVYLQMNSLNPQDTAVYYCARVGLSKRYGSWGQGTEVTVSS | high polyreactivity
5 | QVQLVESGGGLVQAGGSLRLSCAPSGFIFTPYTMGGYRQAPGKERELVAAITDGSSTYYADSVKGRFTISRDNAKNTVYVQMNSLKPEDTAVYYCNADGKPPYISWLYDYWGQGTQVTVST | low polyreactivity
6 | QVQLVESGGGLVQAGGSLRLSCAASGRTFWSNAMGWYRQAPGKERELVADITFSGGRTYYADSVKGRFTISRDNAKNTVYLQMNSLKPEDTAVYYCAASATPSGVGMDYWGQGTQVTVSS | low polyreactivity
7 | QVQLVESGGGLVQAGGSLRLSCAASGRTFKKYAMGWYRQAPGKERELVAAITSRVGSTSYADSVKGRFTISRDNAKNTVYLQMNSLKPEDTAVYYCAARYSVGTGYGYWGQGTQVTVSS | high polyreactivity
8 | QVQLVESGGGLVQAGGSLRLSCAASGSTFRWNAMGWYRQAPGKERELVAAISWSGGTTYYADSVKGRFTISRDNAKNTVYLQMNSLKPEDTAVYYCAARTLWQGYWGQGTQVTVSS | high polyreactivity
9 | QVQLVESGGGLVLAGGRLRLSCAASGRTFFDYTMGWYSQAPGKEREFVARISSRTGRTYYADSVKGRFTISRDNEKNTDDLQMNSLKPDDTAVYYCNAVSQYSAFDYWGQGTQVTVSS | high polyreactivity
10 | QVQLVESGGALVKAGGSLRLSCAASGYIFYGYAMGRYRQAPGKEWELVAAITVRGGSTYYADSVKGRFTISRDNAKNTVYLQMNSLKPEDTAVYYCAAAPQFTFGVGYWGQGTQVTVSS | low polyreactivity
11 | QVQLVESGGGLVQAGGSLRLSCAASGRIFAPYAMGWYRQAPGKERELVAGISIGGSTYYADSVKGRFTISRDNAKNTVYLQMNSLKPEDTAVYYCAALYNFWYSTYYYWGQGTQVTVSS | high polyreactivity
12 | QVQIVESGGGLVQAGGSLRLSCAASGSIFYRYAMGWYRQAPGKEREFVAAIDYSGSITRYADSVKGRFTISRDNAKNTVYLQMNSLKPEDTAVYYCAARSYAKDWGGYNYWGQGTQVTVSS | high polyreactivity
13 | QVQLVESGGGLVQAGGSLRLSCAASGRIFRRYAMGWYRQAPGKERELVAAISSGGSTYYADSVKGRFTISRDNEKNTVYLQLNSLKPEDSAVYYCNAKVGAYLNYGYWGQGTQVTVSS | low polyreactivity
14 | QVQLVESGGRIDQAGGRLRLSCAASGSIFDWYAMGWYRQAPGKERELVAAIDSSGSSTYYADSVKGRFTISRDNAKNTVYLQMNSLIPEDTAVYYCAADSDWIRYWFGSLYGSDYWGQGTQVSVSS | low polyreactivity
15 | QVQLVESGVGLVQAGGSLRLSCAASGRIFIKYAMGWYRQAPGKEREFVAAISGRGGSTYYADSVKGRFTISRDNAKNTVYLQMNSLKPEDTAFYYCAKRFFYSGTAAGMYYWGQGTQVTVSS | high polyreactivity
16 | QVQLVESGGGLVQAGGSLRLSCAASGFTIGSYAMGWYRQAPGKEREFVAAIRRSGSSTYYADSVKGRFTISRDNAKNTVYLQMNSLKPEDTAVYYCAADVYRRLRRYRYYYWGQGTQVTVSS | low polyreactivity
17 | QVQLVESGGGLVQAGGSLRLSCAASGRIFAKNTMGWYRQAPGKERELVAAITWSSGNTDYADSVKGRFTISRDNAKNTVYLQMNSLKPEDTAVYYCAAYPRWTYWGYVERYYWGQGTQVTVSS | high polyreactivity
18 | QVQLVESGGGLVQAGGSLRLSCAASGSIYDWYSMGWNIQAPGKERELVAAISSGDSTYYADSVKGRFTISRDNAKNTVYLQMNSLKPEDTAVYYCAAVTKLSGIRYNYWGQGTQVTVSS | low polyreactivity
19 | QVQLVESGVGLVQAGGSLSLSCAASGFTISLNTMGWYRQAPGKERELVAAITYSGTRTYYADSVKGRFTISRDNAKNTVDLQMNRLKPEDTAVYYCAARHGQSWQWLEYDYWGQGTQVTVSS | low polyreactivity
20 | QVQLVDSRGGLVQAGGSLRLSCAASGLTFGPYAMGRYRQAPGKEREFVAAITWRGGRTNYADSVKGRFTMSRDNAKNTVYLQMNSLKPEDTAVYYCNAVISPHQWIRGGDSWGQGTQVTVSS | low polyreactivity
21 | QVQLVESGGGLVQAGCSLRLSCAASGSIFYSNAMGWYRQAPGKERELVAAITRRGGSTYYADSVKGRFTISRDNAKNTVYLQMNSLKPEDTAVYYCYADGSARTPYYYRWYRYGYWGQGTQVSVSS | high polyreactivity
22 | QVQLVESGGGLVQAGGSLRLSCAASGSTFYLNAMGWYRQAPGKERELVAAINGSGGSTYADSVKGRFTISRDNAKNTVYLQMKSLIQEDTAVYYCAADGSGYPGYSYPGKDYDDWGQGTQVNVSS | low polyreactivity
